The nature of this data set: soluble on expression in E. coli; label from the status in PepcDB or PDB records.
“MIEMKYILARATDEEIQKRGECGGAVTAIFKYMLDREIVDGVLTLERGDDIYDGIPVLLEDSDEIVSTCGSLHCAPTMFGDLISRYLNDMRLAVAVKPCDAMAIKELEKRHQIDPQRVYMIGLNCGGTLSPVSAREMIETFYEIDPDDVVREEIDKGKFIVELKDGSHKEISIDYLEEEGFGRRENCQRCELMVPRNADIACGNWGAEEGWTFIEVNTDRGEEIIEGARREGYLEVKEPPMKMIEIREKIENAMIKMARKFQDKYLEDEYPSLDDWDEYWKRCINCFACRDLCPICFCRECELEKDYLLESDEKAPDPLTFQGVRLSHMGFSCINCGQCEDVCPMDIPLARIYHRIQRKYRDRTGFTAGVSEELPPMYSGEKDLEHHHHHH”: the “soluble on expression in E. coli” value is listed as “soluble”.

With “SSRAKRIMKEIQAVKDDPAAHITLEFVSESDIHHLKGTFLGPPGTPYEGGKFVVDIEVPMEYPFKPPKMQFDTKVYHPNISSVTGAICLDILRNAWSPVITLKSALISLQALLQSPEPNDPQDAEVAQHYLRDRESFNKTAALWTRLYASETSNGQKGNVEESDLYGIDHDLIDEFESQGFEKDKIVEVLRRLGVKSLDPNDNNTANRIIEELLK”, the “soluble on expression in E. coli” value is “soluble”. For “MGYAVLHLEKAKGTDSRMSAHIERTVHPKNADRTRTHLNRELVQFPEGVRNRTQAIAQRIETAGIRRKVSANQVKAIRILLTGSNKDMKQMEAEGRIEDWCNDSLKWIRETYGEQNLVSAVLHMDEKTPHIHATVIPIMTGERRKAGQEEQNGKKKYRKKNPQDVRLCADDVMARHRLKHYQDTYAQAMNKYGLQRGVDGSLAKHISTMQYYKQLVEQQDSLQENIENLLGLEEEAMKKLKQVKGEINVQKMKGAAVNATTAIADGVSSLFGGSKVKRLEAENENLKRNIVNLQKQVQAEQREQTKMENRHSSEINRVDRSYRQKIAEYDNRLELIDTYFPIVKELIPIAEQCREVGFTEELTRRIVSLQPVEFKGRLYSKEYKEKFRTEHSTATVERTPQEKGKFRLCIDGIPILDWFRKKFQEIKEKLGLNTPVENKQRKGLKILEHHHHHH” the value was “not soluble”; for “MSELTIGLILPDVLGTYGDDGNALVLRQRARLRGISAEIHTVRLGEAVPEGLDLYCLGGGEDTAQILAAEHLNNDRGLRRAADSGRPILGICAGLQVLGRSFRASGKIVEGVGLIDATTASLAKRTIGELQSTPTAAGFTAELTEPLTGFENHMGATILGPDAQPLGAVTRGVGNTDLHGITTASVSDEQVSYEGAVQGNVVCTYMHGPALARNPQLADLLLAKAMGIALADLAPLDLPVVDQLRKERLA”, “not soluble”.

With “MNHKALFSGKLVFIGFGSITRATLGLLGNVQRFDVSRIVVIAPGIKGSEPFVKSGVTFIDQALTSDTMESVLGSIVGQGDFIVNLSVNVCSADVIRFAYAHDALYLDTCIEPWGNTYNSPSLTASQRSNYALRDQLRTLGAELGPGPTAVVAHGANPGLISHFLKCALSALAEQLSVAVPRHQGGIDWGNLSMKLGVKVIHIAERDTQRSTRIKSDGEFVNTWSVDGFVSEAGQPAELGWGSHEKNWPPFARHHQFGSDNAIYLDRPGACVSVKTWTPNGGPCNAMLITHNEAISIPELLTVRNEGALSYRPTVHYAYHPCDDALLSINEYTGRGWHAQDRQRIMLDEITPGGIDALGVLIMGHKLNAYWYGSILNIDEARRLAPFNNATSLQVAAGVYSGIIWAIENPDRGIVEPEQMDHQRVMEIALPFLGKFGGVLTDWTPLKTGNALFRKPDADACPWQFEHFTAALEHHHHHH”, the “soluble on expression in E. coli” value is reported as “not soluble”.

For “SGFLEQRLGHCLRQMAEKGLEALLVTHLTNSYYLTGFSGTAATVLITAKRRVLITDSRYTLLAKASVEGFDIIESRTPLKVVAELLEADQIDCLGFEDQVSFSFYQAMQAELSGITLLAQSGFVEHLR”, the “soluble on expression in E. coli” value is “not soluble”. For “MSLGASATRILFVDDEPSILKSLRRVTRSMSAECIFVDNGRDALALMRENPFDVVVSDMRMPEMDGATLLAEIARDYPETMRLVLSGFAEDDLILAAINEGRVWGFIHKPWDDHQLIVTLQHAVTTQQMMVERALLRRTVERYTSELKESFVSFVGGSLPMQAVYNQIERAAPSNASVFITGPSGTGKELAAEAIHKLSERKNGPFIALNCAAIPTELMESEIFGHVKGAFTGAVSARDGAATQAHNGTLFLDEIGEMDISLQAKLLRFIQTGSFQKVGGTKQENVNIRFVCATNRAPLDAIANGTLREDLYYRLNVVALHLPPLNQRENDPILLANTFLQRFAAQERKELVGFSSEASSLILGYDWPGNVRQLQNCIHNVVVMSAGPLITPNDIAIALQLDPQQVATEGHHHHHH” the value was “not soluble”; for “EGFYRHQTQSFSFMVNNVQVVFPSSTSKPWQGLASRRQIDIPQEKVDMIKQSGFVQQASSVYAKWDANITNLKGQNLSSTVSGIDTSYFPLIQRKLQSGSRNLSPSDMKNHTRVAVLGDQIAQMGGIQIGDRLKVNGIPFLVIGITVGEDTGISFGDSRTVFIPQTTYRDLWDAKPWMVLMKPRDGMDAPSFRQNIVNFFAKQLHFDPSDKDAVELPDFSEGAAVISGILRGIQI”, “not soluble”; for “MEINQKREEEDDDEMEWRRDGVKRDSNDFSNYCRQRSLSSDATIMSRQFFVYLIFHVLIDNVIARAPFTRDRPRGLGLLQLPTGMTDERSGPFFPGLYIAGDKAGQKPQTVPDVSLPGQTASFTGRSAFNPFTHMVSAVYTEDLVDAWGAGFAVNGVNNHGLNVRKNFDAFADAPLSSSDGMYQPFLSAASIGSEYDFSKIREVSGNFNLPIPGVNELFDFDGRFMVKGGGNGILNSAMEFPLTLSDPNERAPYTFKYLNYMADRHMHYGHVVPNVNLFVVGKDKIMERLMQNRLNPTMVG”, “not soluble”. As to “MVENSELRKAGLKVTLPRVKILQMLDSAEQRHMSAEDVYKALMEAGEDVGLATVYRVLTQFEAAGLVVRHNFDGGHAVFELADSGHHDHMVCVDTGEVIEFMDAEIEKRQKEIVRERGFELVDHNLVLYVRKKK”, the “soluble on expression in E. coli” value is given as “not soluble”. On to “MAEETIFSKIIRREIPSDIVYQDDLVTAFRDISPQAPTHILIIPNILIPTVNDVSAEHEQALGRMITVAAKIAEQEGIAEDGYRLIMNTNRHGGQEVYHIHMHLLGGRPLGPMLAHKGL”, for which the “soluble on expression in E. coli” value is given as “soluble”.

As for “MVQFLAQMPTGTSSFQAAITENEEGRLFEKYGQLLQESPPASNRPSLGIEGASGLPRPGMCPGRDCSPGSCLAALCPRPPPLYLMVPGKASGMAEAELRATLPCSCGSIPLSTPKR”, the “soluble on expression in E. coli” value is on record as “soluble”. In the case of “MNVIALMAGDSNDFKEKGYTYPKYFLELDNKPLVQNIVESLKKIDCKITFIIRKEDNDQFFLGSSLKILAPFADVVCISGSTKGAVCTTLFAIDSINNEDEVLLINGDQLVKYDINDIIADFRERNLDGGIVTFESVHPRWSYVCLDEQGLVVQTSEKRPISNVATAGIYYYKRGLDLVESCFSVLKKDVQLNGSYYISSTFNELILRQKKVGVYKIDKKEYISFATTQMYENYINKKLEHHHHHH” it was “soluble”; in that of “MGSDKIHHHHHHMGKHTKFGSSDDEGETETSVAKRQKDEKKEKKKEKRDRSRSPHKERERSPKRDRHPEKNESRRHDDRDQERRRDYGRNDRRDDRRGDGSWKTDRNDRNDRRNDFQRRDDKNRLSAEEIAAQRKALWGNKKVAGESSSSNTTDTASSSSEPATGGKNEKLWSSAIAATGVDSSKANKFMRLMGVKNAPKPTDDSSRLSDEKNRQDKMLNDLEKQYAIARETTHMGRGTGFGFGH”, “not soluble”; in that of “MPHTGSQHTLQATPKTAQHTGAQKAPEQAIALKKEQQLKNQEGATSHRKAHTEGCHTQKTRMSADKAGLRHRQGSGEVRARTASTRVEGECSSDGVVMMFCMPARGEEEKASGEARGEDVGSSRESRQGTAHKSTCMHTEAASLQKAGEIGKVEDAKT”, “not soluble”. For “MGSDKIHHHHHHMKALWILLSLTLWLFGAQNLELIKGQALFLELDKKDFLSLKNNDKNIPTFAHPKNQEKILAIFSLPYKNPPQNTKLIAFYKDKKEEIFIKTLEGNYKSEKLQIENKKIFPPKTIQERITKELKEANAIYSSYTPKALFNGAFNIPLNSFITSDFGKARTFNEKVASYHSGTDFRATTGTPIYAANSGVVKIAKDRYFAGNSVVIDHGFGIYSQYYHLSKIDVKIGQKIKKGELIGLSGATGRVSGPHLHFGILAGGKQVDPLDFVSKFNAIFQ” the value was “not soluble”; for “MSKPTLAVALIVKNEARHLDECLQTVHDWVDEIVVLDSGSHDETEQVARRYTEKFYVNAKWPGFGLQRQLAQSYVQSDYVLWLDADERVTPELKQSILQAVAANKPDTLYQFARLSWVFGRFIRHSGWYPDRVLRLYPTQLTRYNDALVHEKVHVEPSMKVETLAGDAIHYTYNDVHHYLVKSAGYAKAWADQRQAKGKKASLSQGIVHAVGCFLKMYLLKRGFLDGKQGFLIALLSAHSTFVKYADLWARDNDEHYKR”, “not soluble”. For “MAIKFQYNKTSLQQQEKQLKMRERTLPTIKSKESALRLEVKRTKDEVERLERQLEEEIVGYRSMVSLWNEFKPDLISVEGVKLSAKKVAGVVVPVLDDISYTIKPFSLFNAPSWFAEGIDLLKNLAHTGIEAEFLGLKLEFLEYARKKTTQKVNLFEKVQIPGYKDAIRKIKRYLEDEESLSKSSQKIMRANMEKRNKGEEVMA” the value was “not soluble”; for “MAHHHHHHMASSALDEMKEQMLRRWKEDQKKIDDLRKKHGHEKLCDATIDAVYGGMRGITGLVYEPSLLDPAEGIRFRGLTILECQEMLPKAPGGKEPLPEAMFWLLMTGEVPTEEQVRGLNAELHRRADPEAIAAAQKAIAALPRNAHPMTAFSVGVLALQSYSKFAAAYAAGKSNKKTYWEYALEDSLDMLARTPAVVAMICNRETKGQVELAAPSNSDLDWAANFAKMMGYQDEEFWECMRLYLSVHADHEGGNVSAHTTTLVASALSDPYLAFSAGLNGLAGPLHGLANQEVLNYLLSMQERVKADGVNMHDEAALEKALSNYTWELLNSGQVVPGYGHAVLRKVDPRYTCLRNFCLRHKFDDDLFKLVNTIYLIMPGILKEHGKTKNPYPNVDAHSGVLLQHYGMTNQNCYPVLFGLSRQMGVLAGVVWDRLQGRPLERPKSITTEMLAKKYLCNSL”, “not soluble”; for “MHDASHNSLFKTKWMNDYLVDWLCARPIWNDVHKYRTHHTRHHAKTSTPEDPDLTLVAGFPTTKTSLTRKFLRDLVGITGFKFTVGRILMDAEVLKWTVANDLTWLPRENRQWYDYPKVFLKNSSKAIIANASIFGILWAFGRPELYLLWPLAYLTPFPLFIRIRSMAEHAGTQISNNALTNTRTTKAGWLARAFVAPIRVNYHMEHHLMAAVPFFKLPKMHQMLRERGHVPEPPTYVQVIHMLSSHQTNQHPLNSVEQGELEHHHHHH”, “soluble”. On to “GSHGGIEGVKGAASGVVGELARARLALDERGQKLSDLEERTAAMMSSADSFSKHAHEMMLKYK”, for which the “soluble on expression in E. coli” value was “soluble”. For “MQIKLPKPFFFEEGKRAVLLLHGFTGNSSDVRQLGRFLQKKGYTSYAPQYEGHAAPPDEILKSSPFVWFKDALDGYDYLVEQGYDEIVVAGLSLGGDFALKLSLNRDVKGIVTMCAPMGGKTEGAIYEGFLEYARNFKKYEGKDQETIDNEMDHFKPTETLKELSEALDTIKEQVDEVLDPILVIQAENDNMIDPQSANYIYDHVDSDDKNIKWYSESGHVITIDKEKEQVFEDIYQFLESLDWSE” the value was “not soluble”.
